{
  "source": "patent US11807887B2",
  "about": "“Compositions and methods related to nucleic acid synthesis” (Nuclera Ltd., priority 2015, dated 2023)",
  "molecules": {"B1": {"name": "Sarcophilus harrisii TdT: terminal deoxynucleotidyl transferase sequence from Sarcophilus harrisii (UniProt: G3VQ55) (protein, listed as Sarcophilus harrisii)", "chain": "MHRIRTTDSDHGKKRQKKMDAISSKLYEIKFHEFVLFILEKKMGATRRTFLMDLARKKGFRVESELSNSVTHIVAENNSGSDVLAWLEAHKLETTAHFELLDVSWLIECMKVGKPVDTKGKYQLVESSIASANPDPNEGMLKIQSPAMNAISPYACQRRTTLNNHNQRFTDAFEILAKNYEFRENHGHCLTFLRATSVLKCLPFAIVSMKDAEGLPWIGDEVKGIMEEIIEDGQSLEVQAVLNDERYQAFKLFTSVFGVGLKTAEKWYRMGFRTLSKIQSDKSLKFTKMQKAGFLYYEDLISCVSKAEADAVSLIVKEAVWTFLPDALITITGGFRRGKEFGHDVDFLITSPGGEKEQVDQLLQKVTNLWEKQGLLLYYDLMESTFEDLKLPSRKVDALDHFQKCFLILKLYCQRGDRSKWEGPEGSNGLQTKNWKAIRVDLVVCPYDRYAYALLGWSGSRQFERDLRRYATHEKKMMLDNHALYDKTKRTFLKAESEEEIFSHLGLEYIEPWERNA"}, "B2": {"name": "Lepisosteus oculatus TdT: terminal deoxynucleotidyl transferase sequence from Lepisosteus oculatus (UniProt: W5MK82) (protein, listed as Lepisosteus oculatus)", "chain": "MLHIPIFPPIKKRQKLPESRNSCKYEVKFSEVAIFLVERKMGSSRRKFLTNLARSKGFRIEDVLSDAVTHVVAEDNSADELWQWLQNSSLGDLSKIEVLDISWFTECMGAGKPVQVEARHCLVKSCPVIDQYLEPSTVETVSQYACQRRTTMENHNQIFTDAFAILAENAEFNESEGPCLAFMRAASLLKSLPHAISSSKDLEGLPCLGDQTKAVIEDILEYGQCSKVQDVLCDDRYQTIKLFTSVFGVGLKTAEKWYRKGFHSLEEVQADNAIHFTKMQKAGFLYYDDISAAVCKAEAQAIGQIVEETVRLIAPDAIVTLTGGFRRGKECGHDVDFLITTPEMGKEVWLLNRLINRLQNQGILLYYDIVESTFDKTRLPCRKFEAMDHFQKCFAIIKLKKELAAGRVQKDWKAIRVDFVAPPVDNFAFALLGWTGSRQFERDLRRFARHERKMLLDNHALYDKTKKYLKKKTTNNYLALNDVCSDLSEWHYKG"}, "B3": {"name": "Bos taurus TdT: commercially available terminal deoxynucleotidyl transferase from Bos taurus (UniProt: P06526) (protein, listed as Bos taurus)", "chain": "MDPLCTASSGPRKKRPRQVGASMASPPHDIKFQNLVLFILEKKMGTTRRNFLMELARRKGFRVENELSDSVTHIVAENNSGSEVLEWLQVQNIRASSQLELLDVSWLIESMGAGKPVEITGKHQLVVRTDYSATPNPGFQKTPPLAVKKISQYACQRKTTLNNYNHIFTDAFEILAENSEFKENEVSYVTFMRAASVLKSLPFTIISMKDTEGIPCLGDKVKCIIEEIIEDGESSEVKAVLNDERYQSFKLFTSVFGVGLKTSEKWFRMGFRSLSKIMSDKTLKFTKMQKAGFLYYEDLVSCVTRAEAEAVGVLVKEAVWAFLPDAFVTMTGGFRRGKKIGHDVDFLITSPGSAEDEEQLLPKVINLWEKKGLLLYYDLVESTFEKFKLPSRQVDTLDHFQKCFLILKLHHQRVDSSKSNQQEGKTWKAIRVDLVMCPYENRAFALLGWTGSRQFERDIRRYATHERKMMLDNHALYDKTKRVFLKAESEEEIFAHLGLDYIEPWERNA"}, "B4": {"name": "engineered variant (SEQ ID NO: 8): variant of SEQ ID NO: 2 engineered for improved activity by alteration of the amino acid sequence (protein)", "chain": "MLHIPIFPPIKKRQKLPESRNSCKYEVKFSEVAIFLVERKMGSSRRKFLTNLARSKGFRIEDVLSDAVTHVVAENNSADELLQWLQNSSLGDLSKIEVLDISWFTECMGAGKPVQVEARHCLVKSCPVIDQYLEPSTVETVSQYACQRRTTMENHNQIFTDAFAILAENAEFNESEGPCLAFMRAASLLKSLPHAISSSKDLEGLPCLGDQTKAVIEDILEYGQCSKVQDVLCDDRYQTIKLFTSVFGVGLRTAEKWYRKGFHSLEEVQADNAIHFTKMQKAGFLYYDDISAAVCKAEAQAIGQIVEETVRLIAPDAIVTLTGGFRRGKECGHDVDFLITTPEMGKEVWLLNRLINRLQNQGILLYYDIVESTFDKTRLPCRKFEAMDHFQKCFAIIKLKKELAAGRVQKDWKAIRVDFVAPPVDNFAFALLGWTGSRQFERDLRRFARHERKMLLDNHALYDKTKKIFLPAKTEEDIFAHLGLDYIDPWQRNA"}},
  "assay_type_in_all_cases": "biochemical",
  "key": {"[1]": {"tested_on": "single-stranded DNA initiator (SEQ ID NO: 7)", "test": "Addition of 3′-O-azidomethyl nucleotide triphosphates to a DNA initiator by TdT orthologs, capillary electrophoresis", "details": "for performance in adding 3′-O-azidomethyl dTTP and 3′-O-azidomethyl dCTP compared to Bos taurus TdT: 20 min, capillary electrophoresis; for ability to add 3′-O reversibly terminated (blocked) nucleotide triphosphates: 3′-O-azidomethyl nucleotide triphosphate, FIG. 3", "description": "(A) A single-stranded DNA initiator was incubated with TdT with the indicated species for 60 min in the above mentioned buffer and reaction conditions. Reactions were then analysed by capillary electrophoresis and a subset of chromatograms are shown. (B) Fraction of DNA initiator strand converted to N+1 species (addition of 3′-O-azidomethyl dTTP) in one hour. (C) Three TdT orthologs were reacted with 3′-O-azidomethyl dTTP and 3′-O-azidomethyl dCTP for 20 min.\nA single-stranded DNA initiator (SEQ ID NO: 7) was incubated with purified, recombinant TdT orthologs, required salts (50 mM potassium acetate, 20 mM tris acetate pH 7.9, 1.5 mM cobalt chloride, Saccharomyces cerevisiae inorganic pyrophosphatase), and 3′-O-azidomethyl dTTP at 37° C. for 60 min. The 3′-blocked nucleotide triphosphate was at a concentration of 1 mM and the DNA initiator at 200 nM and analysed via capillary electrophoresis as shown in FIG. 3(A).\nThe experiment was repeated with the exception that both 3′-O-azidomethyl dTTP and 3′-O-azidomethyl dCTP was used as the 3′-blocked nucleotide triphosphate. The reaction was stopped after 20 min and analysed via capillary electrophoresis."}, "[2]": {"tested_on": "single-stranded DNA initiator (SEQ ID NO: 7)", "test": "Engineered versus wild-type Lepisosteus oculatus TdT, addition of 3′-reversibly blocked dNTP measured by PAGE", "details": "3′-reversibly blocked dCTP, dGTP or dTTP, 1 mM, 37° C., 20 min", "description": "Addition of the dNTP was measured by PAGE and the conversion relative to wild-type TdT was plotted.\nA single-stranded DNA initiator (SEQ ID NO: 7) was incubated with either a purified wild-type Lepisosteus oculatus TdT or a purified, recombinant engineered form of Lepisosteus oculatus TdT (SEQ ID NO: 8), required salts, cobalt chloride, Saccharomyces cerevisiae inorganic pyrophosphatase, and 3′-O-azidomethyl dTTP at 37° C. for 20 min."}, "[3]": {"tested_on": "single-stranded DNA initiator (SEQ ID NO: 7)", "test": "Engineered Lepisosteus oculatus TdT versus Bos taurus TdT, denaturing PAGE gel", "details": "3′-O-azidomethyl dTTP, 37° C., 10 min", "description": "A single-stranded DNA initiator (SEQ ID NO: 7) was incubated with a purified, recombinant engineered form of Lepisosteus oculatus TdT, required salts, cobalt chloride, Saccharomyces cerevisiae inorganic pyrophosphatase, and 3′-O-azidomethyl dTTP at 37° C. for 10 min."}},
  "data": [
    {"molecule": "B1", "values": [
      {"measurement": "performance in adding 3′-O-azidomethyl dTTP and 3′-O-azidomethyl dCTP compared to Bos taurus TdT", "setting": "[1]", "result": "consistently perform better compared to Bos taurus TdT"}
    ]},
    {"molecule": "B2", "values": [
      {"measurement": "performance in adding 3′-O-azidomethyl dTTP and 3′-O-azidomethyl dCTP compared to Bos taurus TdT", "setting": "[1]", "result": "consistently perform better compared to Bos taurus TdT"}
    ]},
    {"molecule": "B3", "values": [
      {"measurement": "ability to add 3′-O reversibly terminated (blocked) nucleotide triphosphates", "setting": "[1]", "result": "only efficiently adds irreversibly blocked nucleotides"},
      {"measurement": "ability to add 3′-O reversibly terminated (blocked) nucleotide triphosphates", "setting": "[1]; listed as recombinant TdT sourced from calf thymus", "result": "unable to add 3′-O-terminated nucleotide triphosphates in a quantitative fashion"}
    ]},
    {"molecule": "B4", "values": [
      {"measurement": "conversion of initiator strand of length n to n+1 versus wild-type Lepisosteus oculatus TdT", "setting": "[2]", "result": "improved ability to convert the initiator strand of length n to a strand of length n+1"},
      {"measurement": "incorporation of 3′-reversibly blocked nucleotides versus Bos Taurus TdT", "setting": "[3]", "result": "much better than Bos Taurus TdT"},
      {"measurement": "incorporation of 3′-reversibly blocked nucleotides versus wild-type Lepisosteus oculatus TdT", "setting": "[3]", "result": "better than the wild-type Lepisosteus oculatus TdT"}
    ]}
  ]
}
